Assay results reported in patent US20140235553.

Tests used:
[1] = test system: NTD-αB crystallin fusion protein
[2] = test system: NTD-αA crystallin fusion protein

Q: For lysozyme, which “CLA: suppression of chemically-induced aggregation of substrate protein” value [1] is on record?
A: The value was “These proteins also displayed CLA, as evidenced by suppressing the chemically-induced aggregation of substrate proteins such as lysozyme”.

Q: What about the “CLA: suppression of chemically-induced aggregation of substrate protein” value [2] of the same substance?
A: Its value is “These proteins also displayed CLA, as evidenced by suppressing the chemically-induced aggregation of substrate proteins such as lysozyme”.
